In experiment [1] the target is T1, Cuphea wrightii KAS IIIa (β-ketoacyl ACP synthase IIIa), recombinant wild-type, GenBank U15935 (Cuphea wrightii, UniProt P49244).
T1 construct: His6 (N); made in house; host or cells: E. coli BL21(DE3)pLys, pET 15b vector
T1 sequence (P49244 68-400 limits assumed): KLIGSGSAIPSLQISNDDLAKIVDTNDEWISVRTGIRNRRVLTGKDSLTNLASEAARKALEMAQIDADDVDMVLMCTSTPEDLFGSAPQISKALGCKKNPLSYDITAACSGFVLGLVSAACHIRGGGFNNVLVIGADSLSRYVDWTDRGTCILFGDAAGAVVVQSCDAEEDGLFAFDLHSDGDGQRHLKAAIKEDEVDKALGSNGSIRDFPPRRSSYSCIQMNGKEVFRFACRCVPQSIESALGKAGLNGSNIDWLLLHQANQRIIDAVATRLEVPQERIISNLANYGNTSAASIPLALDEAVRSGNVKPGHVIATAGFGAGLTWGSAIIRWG
In words: Inhibition of recombinant wild-type KAS IIIa by acyl ACPs and acyl CoAs ([1-14C] acetate incorporation into acetoacetyl ACP; Lineweaver-Burk). In kind it is biochemical. How it is done:
(§1) Wild-type KAS III and KAS IIIa mutants were expressed with a His6-tag at the N-terminus in E. coli strain BL21(DE3)pLys (Novagen, Madison, USA) and purified by nickel affinity chromatography. Purity of the synthesised KAS IIIs was evaluated by SDS-PAGE. The KAS III concentration was determined by the method of Bradford (M. M. Bradford (1976), Anal. Biochem. 72, p. 248-254).
(§2) The activity of KAS IIIa was analysed by the incorporation of radioactive acetate from [1-^14C] acetyl CoA into acetoacetyl ACP (Brück et al. (1996), Planta 198, p. 271-278). The reaction mix (50 μl) contained 100 mM sodium phosphate, pH 7.6, 10 μM [1-^14C] acetyl CoA, 20 μM malonyl ACP and 2 ng of the recombinant KAS IIIa or the KAS IIIa mutant, respectively. The reaction was initiated by adding the enzyme and was performed for a period of 5 minutes at 30° C.
(§3) In the inhibition studies of the wild-type KAS IIIa the used conditions provided for saturation with respect to the substrates acetyl CoA and […]. As regards the inhibitors non-radioactive acyl ACPs (C2-C16) or acyl CoAs (C3-C12) were added at varying concentrations. The resulting data were analysed by the method of Lineweaver-Burk. The inhibition studies of the KAS IIIa mutants with acyl ACPs were performed with 10 μM non-radioactive dodecanoyl ACP (see FIG. 3).
(§4) The KAS III activity was measured as described above in the presence of varying concentrations of acyl ACP (5-25 μM) or of acyl CoA (10-50 μM).
FIG. 2: Kinetic of the inhibition of wild-type KAS III by dodecanoyl ACP. Double reciprocal plots of the concentration of acetyl CoA (A) and malonyl ACP (B) against the activity of KAS III in the absence (●) and presence of 1 μM (▴), 2.5 μM (▪) and 5 μM (▾) dodecanoyl ACP. The respective substrate partner was maintained at a constant level at 10 μM [1-^14C] acetyl CoA and 20 μM malonyl ACP. The enzyme activity was determined by monitoring the incorporation of [1-^14C] acetate from [1-^14C] acetyl CoA into β-ketobutyryl ACP (n=8).

For experiment [2], the target named is recombinant wild-type Cuphea wrightii β-ketoacyl ACP synthase IIIa (cwKAS IIIa) (Cuphea wrightii). In words: inhibition of KAS IIIa enzyme activity ([1-14C] acetyl CoA incorporation), 5-25 µM acyl ACP, Lineweaver-Burk analysis.
Experiment [3] deals with Cuphea wrightii KAS IIIa mutant Asn358Asp (N291D in the mature protein). In words: Inhibition of KAS IIIa mutant Asn358Asp by dodecanoyl ACP. In kind it is biochemical. Here is the method:
(§5) Then, three point-mutated KAS IIIs were created by the substitution of asparagine^358 by aspartate, alanine^361 by serine and alanine^362 by proline. The amplification of the overlapping DNA fragments of the KAS III mutants was performed by two separate reactions, which each contained 2 ng K3MK-pGEMT plasmid as template, 2.5 U proof-reading Pfu polymerase, 200 μM dNTPs and 50 pmol of each of the primers in a total volume of 50 μl. Each reaction mix contained a flanking primer (Fse5 or Xho3) and the corresponding mutation primer. […]
as §1
(§6) The activity of KAS IIIa was analysed by the incorporation of radioactive acetate from [1-^14C] acetyl CoA into acetoacetyl ACP (Brück et al. (1996), Planta 198, p. 271-278). […]
(§7) In the inhibition studies of the wild-type KAS IIIa the used conditions provided for saturation with respect to the substrates acetyl CoA and malonyl CoA. […] The resulting data were analysed by the method of Lineweaver-Burk. […]

Experiment [4] concerns Cuphea wrightii KAS IIIa mutant Ala361Ser (A294S in the mature protein). In words: Inhibition of KAS IIIa mutant Ala361Ser by dodecanoyl ACP. In kind it is biochemical. How it is done: as §5, §1, §6, §7
For experiment [5], the target named is Cuphea wrightii KAS IIIa mutant Asn^358Asp (Cuphea wrightii). The experiment in a line: cell-based or functional assay.
In experiment [6] the target is Cuphea wrightii KAS IIIa mutant Ala^361Ser (Cuphea wrightii). In words: cell-based or functional assay.
In a further experiment the target is T2, wild-type KAS IIIa (Cuphea wrightii, UniProt P49244).
T2 construct: His6 (N); made in house; host or cells: E. coli BL21(DE3)pLys, vector pET15b
T2 sequence (P49244 68-400 limits assumed): T1 sequence (P49244 68-400 limits assumed)
In words: Inhibition of wild-type KAS IIIa by acyl ACPs and acyl CoAs ([1-14C] acetyl CoA incorporation into acetoacetyl ACP). The format is biochemical. The settings on record: with respect to acetyl CoA or malonyl CoA; Lineweaver-Burk. How it is done:
as §2, §3, §4
FIG. 2: Kinetic of the inhibition of wild-type KAS III by dodecanoyl ACP. […] The enzyme activity was determined by monitoring the incorporation of [1-^14C] acetate from [1-^14C] acetyl CoA into β-ketobutyryl ACP (n=8).

The mark [7] stands for this setting: acyl CoA 10-50 μM, pH 7.6, 30° C., 5 minutes, Lineweaver-Burk, read-out: Ki (acyl CoAs).
Where [8] appears, read: in the presence of a saturation concentration (10 μM) of dodecanoyl ACP.

Read-outs that look alike come from different tables or passages of the source.

The results in this text go back to US20030145350A1, “Method for increasing the content of fatty acids in plants and micro-organisms” (priority 2000, published 2003).

Chain of dodecanoyl ACP (P0A6A8 2-78): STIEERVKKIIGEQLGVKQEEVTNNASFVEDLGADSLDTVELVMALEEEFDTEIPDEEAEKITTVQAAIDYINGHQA
Chain of acyl ACP, chain length 8 carbon atoms (P0A6A8 2-78): as above
Chain of acyl ACP, chain length 6 carbon atoms (P0A6A8 2-78): as above
Chain of acyl ACP, chain length 4 carbon atoms (P0A6A8 2-78): as above
Chain of acyl ACP, chain length 2 carbon atoms (P0A6A8 2-78): as above
Chain of acyl ACP, chain length 10 carbon atoms (P0A6A8 2-78): as above
Chain of acyl ACP, chain length 14 carbon atoms (P0A6A8 2-78): as above
Chain of acyl ACP, chain length 16 carbon atoms (P0A6A8 2-78): as above

For the compound `CCC(=O)SCCNC(=O)CCNC(=O)[C@H](O)C(C)(C)COP(=O)(O)OP(=O)(O)OC[C@H]1O[C@@H](n2cnc3c(N)ncnc32)[C@H](O)[C@@H]1OP(=O)(O)O` [acyl CoA C3], the inhibition constant Ki – broadly, a dissociation constant, usually derived from enzyme kinetics or from competition with a known ligand – in experiment [1] was found to be 20.8 ± 0.51 µM.
Same read-out and setting: with `CCCC(=O)SCCNC(=O)CCNC(=O)[C@H](O)C(C)(C)COP(=O)(O)OP(=O)(O)OC[C@H]1O[C@@H](n2cnc3c(N)ncnc32)[C@H](O)[C@@H]1OP(=O)(O)O` [acyl CoA C4] the figure was 91.9 ± 0.9 µM.
Take `CCCCCC(=O)SCCNC(=O)CCNC(=O)[C@H](O)C(C)(C)COP(=O)(O)OP(=O)(O)OC[C@H]1O[C@@H](n2cnc3c(N)ncnc32)[C@H](O)[C@@H]1OP(=O)(O)O` [acyl CoA C6]: the Ki in experiment [1] (setting [7]) came to 42.7 ± 0.3 µM.
`CCCCCCCC(=O)SCCNC(=O)CCNC(=O)[C@H](O)C(C)(C)COP(=O)(O)OP(=O)(O)OC[C@H]1O[C@@H](n2cnc3c(N)ncnc32)[C@H](O)[C@@H]1OP(=O)(O)O` [acyl CoA C8]: the Ki in experiment [1] (setting [7]) is 24.4 ± 0.6 µM.
As for `CCCCCCCCCC(=O)SCCNC(=O)CCNC(=O)[C@H](O)C(C)(C)COP(=O)(O)OP(=O)(O)OC[C@H]1O[C@@H](n2cnc3c(N)ncnc32)[C@H](O)[C@@H]1OP(=O)(O)O` [acyl CoA C10], in experiment [1] (setting [7]), the Ki was 12.5 ± 0.6 µM.
Regarding `CCCCCCCCCCCC(=O)SCCNC(=O)CCNC(=O)[C@H](O)C(C)(C)COP(=O)(O)OP(=O)(O)OC[C@H]1O[C@@H](n2cnc3c(N)ncnc32)[C@H](O)[C@@H]1OP(=O)(O)O` [acyl CoA C12], in experiment [1] (setting [7]), the inhibition constant (Ki) worked out at 20 ± 0.7 µM.
Regarding acyl ACP, chain length 2 carbon atoms, the Ki in experiment [2] was found to be 2.16 µM.
On the same count and under the same terms, with acyl ACP, chain length 4 carbon atoms the figure was 2.9 µM; with acyl ACP, chain length 6 carbon atoms, 8 µM.
On the same count and under the same terms, as for acyl ACP, chain length 8 carbon atoms, the figure is 4.1 µM; as for acyl ACP, chain length 10 carbon atoms, 4.1 µM; as for acyl ACP, chain length 14 carbon atoms, 4 µM.
acyl ACP, chain length 16 carbon atoms: the Ki in experiment [2] stood at 1.3 µM.
In the case of dodecanoyl ACP [listing 1 of 2 here], the “inhibition by acyl ACP (in words)” value in experiment [3] (10 μM dodecanoyl ACP) and in experiment [4] (10 μM dodecanoyl ACP) was “almost not at all inhibited” in each case. For the same compound, the initial activity maintained entry in experiment [3] (setting [8]) and in experiment [4] (setting [8]) was “about 85%” in each case.
For the compound dodecanoyl ACP [listing 2 of 2 here], the Ki in experiment [2] worked out at 0.4 µM. The initial activity maintained in the presence of a saturation concentration (10 µM) of dodecanoyl ACP in experiment [5] and in experiment [6] was 85% each time.
dodecanoyl ACP [acyl ACPs 12]: in the experiment with wild-type KAS IIIa, the “type of inhibition of KAS IIIa” value was “not competitive”.
